Results taken from the supplement of paper PMC9112550, “Optimization of the antimicrobial peptide Bac7 by deep mutational scanning” (BMC Biology, 2022).

System: Escherichia coli TOP10
Test: shrunken log2 fold change of peptide-encoding DNA abundance (4.5 h post-induction vs induction); higher = less antimicrobial activity (less host growth inhibition)
Settings: time post-induction: 4.5 h; library: site-saturation at positions 5, 18, 19, 20
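Further: peptides expressed intracellularly from a pBAD plasmid library in pooled LB shake-flask culture, induced with 0.3% L-arabinose, DNA abundance read by NGS, three biological replicates, DESeq2 with apeglm shrinkage.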

RRIRKRPPRLPRPRPRPVKMPRP
shrunken log2 fold change: 0.0491

RRIRKRPPRLPRPRPRPVKRPRP
shrunken log2 fold change: 0.0121

RRIRKRPPRLPRPRPRPVLCPRP
shrunken log2 fold change: 0.241

RRIRKRPPRLPRPRPRPVMEPRP
shrunken log2 fold change: 0.581

RRIRKRPPRLPRPRPRPVMQPRP
shrunken log2 fold change: 0.041

RRIRKRPPRLPRPRPRPVMWPRP
shrunken log2 fold change: -0.221

RRIRKRPPRLPRPRPRPVNFPRP
shrunken log2 fold change: -0.0174

RRIRKRPPRLPRPRPRPVNTPRP
shrunken log2 fold change: -0.207

RRIRKRPPRLPRPRPRPVPQPRP
shrunken log2 fold change: 0.313

RRIRKRPPRLPRPRPRPVQEPRP
shrunken log2 fold change: 0.0683

RRIRKRPPRLPRPRPRPVQVPRP
shrunken log2 fold change: -0.0596

RRIRKRPPRLPRPRPRPVSKPRP
shrunken log2 fold change: 0.128

RRIRKRPPRLPRPRPRPVSWPRP
shrunken log2 fold change: 0.821

RRIRKRPPRLPRPRPRPVSYPRP
shrunken log2 fold change: -0.227

RRIRKRPPRLPRPRPRPVTMPRP
shrunken log2 fold change: -0.0185

RRIRKRPPRLPRPRPRPVVGPRP
shrunken log2 fold change: 0.686

RRIRKRPPRLPRPRPRPVWYPRP
shrunken log2 fold change: 0.0528

RRIRKRPPRLPRPRPRPVYDPRP
shrunken log2 fold change: 0.0473

RRIRKRPPRLPRPRPRPVYFPRP
shrunken log2 fold change: -0.181

RRIRKRPPRLPRPRPRPVYRPRP
shrunken log2 fold change: -0.667

RRIRKRPPRLPRPRPRPWAAPRP
shrunken log2 fold change: 0.473

RRIRKRPPRLPRPRPRPWATPRP
shrunken log2 fold change: 0.546

RRIRKRPPRLPRPRPRPWCSPRP
shrunken log2 fold change: -0.155

RRIRKRPPRLPRPRPRPWDHPRP
shrunken log2 fold change: -0.0434

RRIRKRPPRLPRPRPRPWFVPRP
shrunken log2 fold change: -0.036

RRIRKRPPRLPRPRPRPWFWPRP
shrunken log2 fold change: 0.442

RRIRKRPPRLPRPRPRPWGTPRP
shrunken log2 fold change: 0.341

RRIRKRPPRLPRPRPRPWLIPRP
shrunken log2 fold change: 0.109

RRIRKRPPRLPRPRPRPWMIPRP
shrunken log2 fold change: 0.0508

RRIRKRPPRLPRPRPRPWMQPRP
shrunken log2 fold change: -0.0134

RRIRKRPPRLPRPRPRPWQCPRP
shrunken log2 fold change: -0.00136

RRIRKRPPRLPRPRPRPWRKPRP
shrunken log2 fold change: 0.0487

RRIRKRPPRLPRPRPRPWRSPRP
shrunken log2 fold change: -0.0167

RRIRKRPPRLPRPRPRPWRWPRP
shrunken log2 fold change: 0.595

RRIRKRPPRLPRPRPRPWTDPRP
shrunken log2 fold change: -0.00992

RRIRKRPPRLPRPRPRPWVFPRP
shrunken log2 fold change: 0.0817

RRIRKRPPRLPRPRPRPWVGPRP
shrunken log2 fold change: 0.0422

RRIRKRPPRLPRPRPRPWWYPRP
shrunken log2 fold change: -0.127

RRIRKRPPRLPRPRPRPYACPRP
shrunken log2 fold change: -0.0471

RRIRKRPPRLPRPRPRPYARPRP
shrunken log2 fold change: -0.0148

RRIRKRPPRLPRPRPRPYASPRP
shrunken log2 fold change: 0.0496

RRIRKRPPRLPRPRPRPYCPPRP
shrunken log2 fold change: 0.0231

RRIRKRPPRLPRPRPRPYDNPRP
shrunken log2 fold change: 0.0185

RRIRKRPPRLPRPRPRPYDRPRP
shrunken log2 fold change: 0.192

RRIRKRPPRLPRPRPRPYEPPRP
shrunken log2 fold change: -0.243

RRIRKRPPRLPRPRPRPYEQPRP
shrunken log2 fold change: -0.0536

RRIRKRPPRLPRPRPRPYGSPRP
shrunken log2 fold change: -0.224

RRIRKRPPRLPRPRPRPYHMPRP
shrunken log2 fold change: -0.0573

RRIRKRPPRLPRPRPRPYHSPRP
shrunken log2 fold change: 2.07

RRIRKRPPRLPRPRPRPYHTPRP
shrunken log2 fold change: -0.673

RRIRKRPPRLPRPRPRPYIDPRP
shrunken log2 fold change: -0.194

RRIRKRPPRLPRPRPRPYIQPRP
shrunken log2 fold change: -0.319

RRIRKRPPRLPRPRPRPYKNPRP
shrunken log2 fold change: -0.176

RRIRKRPPRLPRPRPRPYKPPRP
shrunken log2 fold change: -0.0134

RRIRKRPPRLPRPRPRPYLPPRP
shrunken log2 fold change: -0.354

RRIRKRPPRLPRPRPRPYLSPRP
shrunken log2 fold change: -0.119

RRIRKRPPRLPRPRPRPYNIPRP
shrunken log2 fold change: -0.133

RRIRKRPPRLPRPRPRPYNSPRP
shrunken log2 fold change: -0.49

RRIRKRPPRLPRPRPRPYPAPRP
shrunken log2 fold change: 0.289

RRIRKRPPRLPRPRPRPYPSPRP
shrunken log2 fold change: 0.0794

RRIRKRPPRLPRPRPRPYRSPRP
shrunken log2 fold change: 0.0428

RRIRKRPPRLPRPRPRPYSIPRP
shrunken log2 fold change: -0.182

RRIRKRPPRLPRPRPRPYSVPRP
shrunken log2 fold change: -0.114

RRIRKRPPRLPRPRPRPYTSPRP
shrunken log2 fold change: -0.05

RRIRKRPPRLPRPRPRPYTTPRP
shrunken log2 fold change: -0.0326

RRIRKRPPRLPRPRPRPYVCPRP
shrunken log2 fold change: -0.0742

RRIRKRPPRLPRPRPRPYYCPRP
shrunken log2 fold change: 0.32

RRIRKRPPRLPRPRPRPYYDPRP
shrunken log2 fold change: -0.204

RRIRKRPPRLPRPRPRPYYPPRP
shrunken log2 fold change: -0.227

RRIRKRPPRLPRPRPRPYYYPRP
shrunken log2 fold change: -0.704

RRIRLRPPRLPRPRPRPAAEPRP
shrunken log2 fold change: 0.432

RRIRLRPPRLPRPRPRPAGEPRP
shrunken log2 fold change: -0.0968

RRIRLRPPRLPRPRPRPALEPRP
shrunken log2 fold change: 0.155

RRIRLRPPRLPRPRPRPAMCPRP
shrunken log2 fold change: 0.059

RRIRLRPPRLPRPRPRPAMLPRP
shrunken log2 fold change: -0.0377
